This is an account of results in PMC8120272, “Heterologous Expression and Biochemical Characterization of the Human Zinc Transporter 1 (ZnT1) and Its Soluble C-Terminal Domain” (Frontiers in Chemistry, 2021).

The series concerns the molecule itself. Kind of series: SEC-SAXS (small-angle X-ray scattering); in-line SEC-SAXS with sheath flow, SAXS-WAXS beamline of the Australian Synchrotron; molecular mass estimated from the Porod volume; conditions in Supplementary Table 3.

B1: soluble C-terminal domain of human zinc transporter 1 (hZnT1-CTD) (domain or fragment, UniProt Q9Y6M5 342-507, looked up)
chain: ILLQTVPKQIDIRNLIKELRNVEGVEEVHELHVWQLAGSRIIATAHIKCEDPTSYMEVAKTIKDVFHNHGIHATTIQPEFASVGSKSSVVPCELACRTQCALKQCCGTLPQAPSGKDAEKTPAVSISCLELSNNLEKKPRRTKAENIPAVVIEIKNMPNKQPESSL
notes: human zinc transporter 1 (ZnT1, SLC30A1), soluble C-terminal domain, residues 342-507; Cloned into pET24a with a C-terminal His8-tag; no removal of the tag is described
Turning to B1, the “stoichiometry N” value is 2.
